From IntAct's records for PubMed 16203728

B1: Erbin (Homo sapiens), Q96RT1-2 (parent)
chain: MTTKRSLFVRLVPCRCLRGEEETVTTLDYSHCSLEQVPKEIFTFEKTLEELYLDANQIEELPKQLFNCQSLHKLSLPDNDLTTLPASIANLINLRELDVSKNGIQEFPENIKNCKVLTIVEASVNPISKLPDGFSQLLNLTQLYLNDAFLEFLPANFGRLTKLQILELRENQLKMLPKTMNRLTQLERLDLGSNEFTEVPEVLEQLSGLKEFWMDANRLTFIPGFIGSLKQLTYLDVSKNNIEMVEEGISTCENLQDLLLSSNSLQQLPETIGSLKNITTLKIDENQLMYLPDSIGGLISVEELDCSFNEVEALPSSIGQLTNLRTFAADHNYLQQLPPEIGSWKNITVLFLHSNKLETLPEEMGDMQKLKVINLSDNRLKNLPFSFTKLQQLTAMWLSDNQSKPLIPLQKETDSETQKMVLTNYMFPQQPRTEDVMFISDNESFNPSLWEEQRKQRAQVAFECDEDKDEREAPPREGNLKRYPTPYPDELKNMVKTVQTIVHRLKDEETNEDSGRDLKPHEDQQDINKDVGVKTSESTTTVKSKVDEREKYMIGNSVQKISEPEAEISPGSLPVTANMKASENLKHIVNHDDVFEESEELSSDEEMKMAEMRPPLIETSINQPKVVALSNNKKDDTKETDSLSDEVTHNSNQNNSNCSSPSRMSDSVSLNTDSSQDTSLCSPVKQTHIDINSKIRQEDENFNSLLQNGDILNSSTEEKFKAHDKKDFNLPEYDLNVEERLVLIEKSVDSTATADDTHKLDHINMNLNKLITNDTFQPEIMERSKTQDIVLGTSFLSINSKEETEHLENGNKYPNLESVNKVNGHSEETSQSPNRTEPHDSDCSVDLGISKSTEDLSPQKSGPVGSVVKSHSITNMEIGGLKIYDILSDNGPQQPSTTVKITSAVDGKNIVRSKSATLLYDQPLQVFTGSSSSSDLISGTKAIFKFDSNHNPEEPNIIRGPTSGPQSAPQIYGPPQYNIQYSSSAAVKDTLWHSKQNPQIDHASFPPQLLPRSESTENQSYAKHSANMNFSNHNNVRANTAYHLHQRLGPARHGEMWAISPNDRLIPAVTRSTIQRQSSVSSTASVNLGDPGSTRRAQIPEGDYLSYREFHSAGRTPPMMPGSQRPLSARTYSIDGPNASRPQSARPSINEIPERTMSVSDFNYSRTSPSKRPNARVGSEHSLLDPPGKSKVPRDWREQVLRHIEAKKLEKMPLSNGQMGQPLRPQANYSQIHHPPQASVARHPSREQLIDYLMLKVAHQPPYTQPHCSPRQGHELAKQEIRVRVEKDPELGFSISGGVGGRGNPFRPDDDGIFVTRVQPEGPASKLLQPGDKIIQANGYSFINIEHGQAVSLLKTFQNTVELIIVREVSS

Variants of: B1
Details: with nod2_human NOD2, Q9HC29
nod2_human NOD2, Q9HC29, sequence (Q9HC29 whole entry): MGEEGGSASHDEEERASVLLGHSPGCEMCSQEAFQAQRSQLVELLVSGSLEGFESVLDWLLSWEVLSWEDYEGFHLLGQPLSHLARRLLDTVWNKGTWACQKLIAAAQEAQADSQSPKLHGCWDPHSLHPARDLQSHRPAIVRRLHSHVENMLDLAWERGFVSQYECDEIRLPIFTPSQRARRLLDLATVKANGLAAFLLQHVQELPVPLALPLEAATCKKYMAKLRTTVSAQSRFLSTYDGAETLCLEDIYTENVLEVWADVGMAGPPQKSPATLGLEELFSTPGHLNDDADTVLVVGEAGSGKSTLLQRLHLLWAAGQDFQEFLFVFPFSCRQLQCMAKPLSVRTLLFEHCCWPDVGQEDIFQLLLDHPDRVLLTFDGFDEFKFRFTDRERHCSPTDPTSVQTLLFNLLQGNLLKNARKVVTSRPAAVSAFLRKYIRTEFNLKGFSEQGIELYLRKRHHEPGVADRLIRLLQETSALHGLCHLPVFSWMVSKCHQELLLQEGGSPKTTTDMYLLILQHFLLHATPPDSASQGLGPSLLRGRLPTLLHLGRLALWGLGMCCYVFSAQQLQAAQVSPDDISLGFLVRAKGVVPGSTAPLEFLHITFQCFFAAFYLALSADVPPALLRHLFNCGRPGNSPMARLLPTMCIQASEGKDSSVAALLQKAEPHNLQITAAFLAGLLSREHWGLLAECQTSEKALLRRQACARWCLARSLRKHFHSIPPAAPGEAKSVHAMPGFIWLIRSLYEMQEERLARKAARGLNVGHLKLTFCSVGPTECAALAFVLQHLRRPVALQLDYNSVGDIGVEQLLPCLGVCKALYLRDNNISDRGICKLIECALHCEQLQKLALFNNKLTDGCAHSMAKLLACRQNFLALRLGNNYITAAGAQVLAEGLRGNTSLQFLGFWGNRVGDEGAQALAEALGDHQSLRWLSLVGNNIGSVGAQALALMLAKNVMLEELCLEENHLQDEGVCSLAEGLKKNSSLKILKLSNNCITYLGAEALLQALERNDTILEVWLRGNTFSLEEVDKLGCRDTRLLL

| effect of a mutation on the interaction | Variant |
| --- | --- |
| decreasing interaction | P315L |
